From patent US20130236458A1 (AbbVie / Abbott, published 2013)

What was measured:
Recombinant Human IL-17 [1] = target: T1, Recombinant Human IL-17 (human, UniProt Q16552 20-155, limits assumed); experiment: cell-based or functional assay
T1 sequence (looked up): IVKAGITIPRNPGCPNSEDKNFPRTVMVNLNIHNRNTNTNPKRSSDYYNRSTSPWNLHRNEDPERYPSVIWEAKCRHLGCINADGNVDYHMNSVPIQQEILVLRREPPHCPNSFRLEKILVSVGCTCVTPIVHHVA

Recombinant Human IL-13 [2] = target: T2, Recombinant Human IL-13 (human, UniProt P35225 35-146, limits assumed); experiment: cell-based or functional assay
T2 sequence (P35225 35-146 limits assumed): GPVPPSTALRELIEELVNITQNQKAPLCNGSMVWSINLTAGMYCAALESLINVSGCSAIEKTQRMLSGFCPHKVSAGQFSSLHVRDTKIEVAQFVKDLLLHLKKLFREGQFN

Recombinant Human IL-17 [3] = target: T1, Recombinant Human IL-17; experiment: SPR (Biacore)
Protocol: (§1) The BIACORE assay (Biacore, Inc, Piscataway, N.J.) determined the affinity of antibodies or DVD-Ig with kinetic measurements of on-rate and off-rate constants. Binding of antibodies or DVD-Ig proteins to a target antigen (for example, a purified recombinant target antigen) was determined by surface plasmon resonance-based measurements with a Biacore®1000 or 3000 instrument (Biacore® AB, Uppsala, Sweden) using running HBS-EP (10 mM HEPES [pH 7.4], 150 mM NaCl, 3 mM EDTA, and 0.005% surfactant P20) at 25° C. All chemicals were obtained from Biacore® AB (Uppsala, Sweden) or otherwise from a different source as described in the text. For example, approximately 5000 RU of goat anti-mouse IgG, (Fcγ), fragment specific polyclonal antibody (Pierce Biotechnology Inc, Rockford, Ill.) diluted in 10 mM sodium acetate (pH 4.5) was directly immobilized across a CM5 research grade biosensor chip using a standard amine coupling kit according to manufacturer's instructions and procedures at 25 μg/ml. Unreacted moieties on the biosensor surface were blocked with ethanolamine. Modified carboxymethyl dextran surface in flowcell 2 and 4 was used as a reaction surface. Unmodified carboxymethyl dextran without goat anti-mouse IgG in flow cell 1 and 3 was used as the reference surface. For kinetic analysis, rate equations derived from the 1:1 Langmuir binding model were fitted simultaneously to association and dissociation phases of all eight injections (using global fit analysis) with the use of Biaevaluation 4.0.1 software. Purified antibodies or DVD-Ig proteins were diluted in HEPES-buffered saline for capture across goat anti-mouse IgG specific reaction surfaces. Antibodies or DVD-Ig proteins to be captured as a ligand (25 μg/ml) were injected over reaction matrices at a flow rate of 5 μl/minute. The association and dissociation rate constants, kₒₙ (M⁻¹s⁻¹) and koff (s⁻¹) were determined under a continuous flow rate of 25 μl/minute. Rate constants were derived by making kinetic binding measurements at different antigen concentrations ranging from 10-200 nM. The equilibrium dissociation constant (M) of the reaction between antibodies or DVD-Ig proteins and the target antigen was then calculated from the kinetic rate constants by the following formula: KD=koff/kₒₙ. Binding was recorded as a function of time and kinetic rate constants were calculated.

Recombinant Human IL-13 [4] = target: T2, Recombinant Human IL-13; experiment: SPR (Biacore)
Protocol: as §1

| Binder | N-Terminal VD IL17 Neutralization Assay IC50 (Recombinant Human IL-17 [1]) | C-Terminal VD IL13 Neutralization Assay IC50 (Recombinant Human IL-13 [2]) | Kd (Recombinant Human IL-17 [3]) | koff (Recombinant Human IL-17 [3]) | kon (Recombinant Human IL-17 [3]) | Kd (Recombinant Human IL-13 [4]) | koff (Recombinant Human IL-13 [4]) | kon (Recombinant Human IL-13 [4]) | C-Terminal VD IL17 Neutralization Assay IC50 (Recombinant Human IL-17 [1]) | N-Terminal VD IL13 Neutralization Assay IC50 (Recombinant Human IL-13 [2]) |
| --- | --- | --- | --- | --- | --- | --- | --- | --- | --- | --- |
| DVD2193 (bispecific antibody, DVD-Ig; also called DVD2193H; DVD2193L) VH: EVQLVQSGAEVKKPGSSVKVSCKASGGSFGGYGIGWVRQAPGQGLEWMGGITPFFGFADYAQKFQGRVTITADESTTTAYMELSGLTSDDTAVYYCARDPNEFWNGYYSTHDFDSWGQGTTVTVSSASTKGPEVQLVQSGAEVKKPGASVKVSCKASGYTFTSYWMHWVRQAPGQGLEWIGNINPKGGSNIYNEKFQGRVTMTRDTSISTAYMELSRLRSDDTAVYYCARLDYFGDSFDLWGQGTTVTVSS VL: EIVLTQSPDFQSVTPKEKVTITCRASQDIGSELHWYQQKPDQPPKLLIKYASHSTSGVPSRFSGSGSGTDFTLTINGLEAEDAGTYYCHQTDSLPYTFGPGTKVDIKRTVAAPSVFIFPPDIQMTQSPSSLSASVGDRVTITCRASQGIRNYLNWYQQKPGKAPKLLIYYASNLEVGVPSRFSGSGSGTDYTLTISSLQPEDFATYYCQQDNRFPYTFGGGTKVEIKR | 0.014 nM | 0.028 nM | 0.012 nM | 2.2e-05 s⁻¹ | 1.9e+06 M⁻¹ s⁻¹ | 0.066 nM | 3.9e-05 s⁻¹ | 590000 M⁻¹ s⁻¹ | – | – |
| DVD2195 (bispecific antibody, DVD-Ig; also called DVD2195H; DVD2195L) VH: EVQLVQSGAEVKKPGSSVKVSCKASGGSFGGYGIGWVRQAPGQGLEWMGGITPFFGFADYAQKFQGRVTITADESTTTAYMELSGLTSDDTAVYYCARDPNEFWNGYYSTHDFDSWGQGTTVTVSSASTKGPSVFPLAPEVQLVQSGAEVKKPGASVKVSCKASGYTFTSYWMHWVRQAPGQGLEWIGNINPKGGSNIYNEKFQGRVTMTRDTSISTAYMELSRLRSDDTAVYYCARLDYFGDSFDLWGQGTTVTVSS VL: EIVLTQSPDFQSVTPKEKVTITCRASQDIGSELHWYQQKPDQPPKLLIKYASHSTSGVPSRFSGSGSGTDFTLTINGLEAEDAGTYYCHQTDSLPYTFGPGTKVDIKRTVAAPDIQMTQSPSSLSASVGDRVTITCRASQGIRNYLNWYQQKPGKAPKLLIYYASNLEVGVPSRFSGSGSGTDYTLTISSLQPEDFATYYCQQDNRFPYTFGGGTKVEIKR | 0.0181 nM | 0.052 nM | 0.002 nM | 4.8e-06 s⁻¹ | 2.4e+06 M⁻¹ s⁻¹ | 0.014 nM | 3.7e-05 s⁻¹ | 2.6e+06 M⁻¹ s⁻¹ | – | – |
| DVD2196 (bispecific antibody, DVD-Ig; also called DVD2196H; DVD2196L) VH: EVQLVQSGAEVKKPGASVKVSCKASGYTFTSYWMHWVRQAPGQGLEWIGNINPKGGSNIYNEKFQGRVTMTRDTSISTAYMELSRLRSDDTAVYYCARLDYFGDSFDLWGQGTTVTVSSASTKGPEVQLVQSGAEVKKPGESVKISCKASGGSFRSYGISWVRQAPGQGLEWMGGITHFFGITDYAQKFQGRVTITADESTTTAYMELSGLTSDDTAVYYCAREPNDFWNGYYDTHDFDSWGQGTTVTVSS VL: DIQMTQSPSSLSASVGDRVTITCRASQGIRNYLNWYQQKPGKAPKLLIYYASNLEVGVPSRFSGSGSGTDYTLTISSLQPEDFATYYCQQDNRFPYTFGGGTKVEIKRTVAAPEIVLTQSPDFQSVTPKEKVTITCRASQNIGSELHWYQQKPDQSPKLLIKYASHSISGVPSRFSGSGSGTDFTLTINGLEAEDAATYYCHQSDTLPHTFGQGTKVDIKR | – | – | < 0.0091 nM | < 1e-06 s⁻¹ | 110000 M⁻¹ s⁻¹ | 0.029 nM | 6.4e-05 s⁻¹ | 2.2e+06 M⁻¹ s⁻¹ | 0.0551 nM | 0.029 nM |
| DVD2197 (bispecific antibody, DVD-Ig; also called DVD2197H; DVD2197L) VH: EVQLVQSGAEVKKPGESVKISCKASGGSFRSYGISWVRQAPGQGLEWMGGITHFFGITDYAQKFQGRVTITADESTTTAYMELSGLTSDDTAVYYCAREPNDFWNGYYDTHDFDSWGQGTTVTVSSASTKGPEVQLVQSGAEVKKPGASVKVSCKASGYTFTSYWMHWVRQAPGQGLEWIGNINPKGGSNIYNEKFQGRVTMTRDTSISTAYMELSRLRSDDTAVYYCARLDYFGDSFDLWGQGTTVTVSS VL: EIVLTQSPDFQSVTPKEKVTITCRASQNIGSELHWYQQKPDQSPKLLIKYASHSISGVPSRFSGSGSGTDFTLTINGLEAEDAATYYCHQSDTLPHTFGQGTKVDIKRTVAAPDIQMTQSPSSLSASVGDRVTITCRASQGIRNYLNWYQQKPGKAPKLLIYYASNLEVGVPSRFSGSGSGTDYTLTISSLQPEDFATYYCQQDNRFPYTFGGGTKVEIKR | 0.005 nM | 0.081 nM | 0.038 nM | 6.2e-05 s⁻¹ | 1.6e+06 M⁻¹ s⁻¹ | 0.14 nM | 4.4e-05 s⁻¹ | 310000 M⁻¹ s⁻¹ | – | – |
| DVD2199 (bispecific antibody, DVD-Ig; also called DVD2199H; DVD2199L) VH: EVQLVQSGAEVKKPGESVKISCKASGGSFRSYGISWVRQAPGQGLEWMGGITHFFGITDYAQKFQGRVTITADESTTTAYMELSGLTSDDTAVYYCAREPNDFWNGYYDTHDFDSWGQGTTVTVSSASTKGPEVQLVQSGAEVKKPGASVKVSCKASGYTFTSYWMHWVRQAPGQGLEWIGNINPKGGSNIYNEKFQGRVTMTRDTSISTAYMELSRLRSDDTAVYYCARLDYFGDSFDLWGQGTTVTVSS VL: EIVLTQSPDFQSVTPKEKVTITCRASQNIGSELHWYQQKPDQSPKLLIKYASHSISGVPSRFSGSGSGTDFTLTINGLEAEDAATYYCHQSDTLPHTFGQGTKVDIKRTVAAPSVFIFPPDIQMTQSPSSLSASVGDRVTITCRASQGIRNYLNWYQQKPGKAPKLLIYYASNLEVGVPSRFSGSGSGTDYTLTISSLQPEDFATYYCQQDNRFPYTFGGGTKVEIKR | 0.0102 nM | 0.088 nM | 0.019 nM | 4.4e-05 s⁻¹ | 2.3e+06 M⁻¹ s⁻¹ | 0.026 nM | 3.4e-05 s⁻¹ | 1.3e+06 M⁻¹ s⁻¹ | – | – |
| DVD2200 (bispecific antibody, DVD-Ig; also called DVD2200H; DVD2200L) VH: EVQLVQSGAEVKKPGASVKVSCKASGYTFTSYWMHWVRQAPGQGLEWIGNINPKGGSNIYNEKFQGRVTMTRDTSISTAYMELSRLRSDDTAVYYCARLDYFGDSFDLWGQGTTVTVSSASTKGPSVFPLAPEVQLVQSGAEVKKPGESVKISCKASGGSFRSYGISWVRQAPGQGLEWMGGITHFFGITDYAQKFQGRVTITADESTTTAYMELSGLTSDDTAVYYCAREPNDFWNGYYDTHDFDSWGQGTTVTVSS VL: DIQMTQSPSSLSASVGDRVTITCRASQGIRNYLNWYQQKPGKAPKLLIYYASNLEVGVPSRFSGSGSGTDYTLTISSLQPEDFATYYCQQDNRFPYTFGGGTKVEIKRTVAAPEIVLTQSPDFQSVTPKEKVTITCRASQNIGSELHWYQQKPDQSPKLLIKYASHSISGVPSRFSGSGSGTDFTLTINGLEAEDAATYYCHQSDTLPHTFGQGTKVDIKR | – | – | 0.025 nM | 4.6e-06 s⁻¹ | 180000 M⁻¹ s⁻¹ | 0.045 nM | 6e-05 s⁻¹ | 1.3e+06 M⁻¹ s⁻¹ | 0.0072 nM | 0.096 nM |
| DVD2201 (bispecific antibody, DVD-Ig; also called DVD2201H; DVD2201L) VH: EVQLVQSGAEVKKPGESVKISCKASGGSFRSYGISWVRQAPGQGLEWMGGITHFFGITDYAQKFQGRVTITADESTTTAYMELSGLTSDDTAVYYCAREPNDFWNGYYDTHDFDSWGQGTTVTVSSASTKGPSVFPLAPEVQLVQSGAEVKKPGASVKVSCKASGYTFTSYWMHWVRQAPGQGLEWIGNINPKGGSNIYNEKFQGRVTMTRDTSISTAYMELSRLRSDDTAVYYCARLDYFGDSFDLWGQGTTVTVSS VL: EIVLTQSPDFQSVTPKEKVTITCRASQNIGSELHWYQQKPDQSPKLLIKYASHSISGVPSRFSGSGSGTDFTLTINGLEAEDAATYYCHQSDTLPHTFGQGTKVDIKRTVAAPDIQMTQSPSSLSASVGDRVTITCRASQGIRNYLNWYQQKPGKAPKLLIYYASNLEVGVPSRFSGSGSGTDYTLTISSLQPEDFATYYCQQDNRFPYTFGGGTKVEIKR | 0.0116 nM | 0.092 nM | 0.04 nM | 6.3e-05 s⁻¹ | 1.6e+06 M⁻¹ s⁻¹ | 0.024 nM | 5.7e-05 s⁻¹ | 2.4e+06 M⁻¹ s⁻¹ | – | – |
